From article PMC6527163, “Proteomic discovery of substrates of the cardiovascular protease ADAMTS7” (The Journal of Biological Chemistry, 2019)

T1: ADAMTS7-T8 (human, UniProt Q9UKP4 237-1630)
T1 construct: signal peptide in the construct; human ADAMTS7 cDNA including the native signal peptide, truncated after Pro-1630 (T8); The construct is made as a zymogen; The stated enzyme concentrations are active protease, found by active-site titration with TIMP-4; also called purified ADAMTS7-T8; source: HEK cells stably expressing ADAMTS7-T8, conditioned medium, purified (anion exchange chromatography, gel …)
T1 sequence (looked up): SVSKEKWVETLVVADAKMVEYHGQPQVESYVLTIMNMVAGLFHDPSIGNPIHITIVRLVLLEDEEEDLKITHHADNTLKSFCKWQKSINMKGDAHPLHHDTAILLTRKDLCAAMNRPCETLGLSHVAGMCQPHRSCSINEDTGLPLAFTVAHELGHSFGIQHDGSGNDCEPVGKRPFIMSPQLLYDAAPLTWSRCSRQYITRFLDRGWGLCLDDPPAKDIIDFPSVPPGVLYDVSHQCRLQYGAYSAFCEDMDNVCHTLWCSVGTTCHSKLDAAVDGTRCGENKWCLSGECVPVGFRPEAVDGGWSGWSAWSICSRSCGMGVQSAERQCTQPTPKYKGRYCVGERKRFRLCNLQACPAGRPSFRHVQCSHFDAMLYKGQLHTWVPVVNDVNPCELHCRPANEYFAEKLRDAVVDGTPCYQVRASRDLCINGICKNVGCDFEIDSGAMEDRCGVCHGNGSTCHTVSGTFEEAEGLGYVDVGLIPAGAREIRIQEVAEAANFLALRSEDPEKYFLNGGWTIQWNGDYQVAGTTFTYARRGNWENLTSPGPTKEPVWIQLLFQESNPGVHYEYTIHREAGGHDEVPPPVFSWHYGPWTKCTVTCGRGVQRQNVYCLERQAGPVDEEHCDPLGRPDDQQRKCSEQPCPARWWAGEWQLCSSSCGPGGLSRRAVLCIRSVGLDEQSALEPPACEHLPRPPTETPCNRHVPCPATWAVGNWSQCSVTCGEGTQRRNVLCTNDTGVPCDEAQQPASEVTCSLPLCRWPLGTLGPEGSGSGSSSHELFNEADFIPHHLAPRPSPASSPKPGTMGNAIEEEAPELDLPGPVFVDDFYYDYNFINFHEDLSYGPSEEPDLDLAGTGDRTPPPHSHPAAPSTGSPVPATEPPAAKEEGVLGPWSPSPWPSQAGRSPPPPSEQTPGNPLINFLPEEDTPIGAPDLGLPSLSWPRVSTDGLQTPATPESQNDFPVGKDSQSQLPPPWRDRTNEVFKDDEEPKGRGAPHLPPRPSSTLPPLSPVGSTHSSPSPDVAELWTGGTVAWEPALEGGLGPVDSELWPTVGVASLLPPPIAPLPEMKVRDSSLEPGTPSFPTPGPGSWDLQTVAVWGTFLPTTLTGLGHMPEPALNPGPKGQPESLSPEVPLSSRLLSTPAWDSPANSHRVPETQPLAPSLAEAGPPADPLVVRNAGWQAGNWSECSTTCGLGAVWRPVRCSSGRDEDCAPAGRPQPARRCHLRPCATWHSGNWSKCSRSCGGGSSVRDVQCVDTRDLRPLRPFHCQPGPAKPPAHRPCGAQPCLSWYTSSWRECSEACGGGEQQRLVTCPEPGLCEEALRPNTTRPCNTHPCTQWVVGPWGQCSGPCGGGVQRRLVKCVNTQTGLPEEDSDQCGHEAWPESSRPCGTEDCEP


Target: T1, ADAMTS7-T8
Assay: enzyme inhibition assay (densitometry of LTBP4S-A cleavage on SDS-PAGE/Coomassie Blue); apparent Ki; TIMP (1.75-60 nM) pre-incubated with ADAMTS7-T8 for 1 h at 37 °C, then 18 nM ADAMTS7 and 10 μM LTBP4S-A for 17 h at 37 °C; 20 mM Tris, pH 7.5, 150 mM NaCl, 10 mM CaCl2
Conditions: both partners purified

| Ki [nM] | Binder |
| --- | --- |
| 49 | TIMP-3 (natural protein, human, UniProt P35625 24-211, looked up, recombinant human TIMP-3 (R&D Systems); No catalogue number or tags are stated; source: bought: R&D Systems (recombinant human)) CTCSPSHPQDAFCNSDIVIRAKVVGKKLVKEGPFGTLVYTIKQMKMYRGFTKMPHVQYIHTEASESLCGLKLEVNKYQYLLTGRVYDGKMYTGLCNFVERWDQLTLSQRKGLNYRYHLGCNCKIKSCYYLPCFVTSKNECLWTDMLSNFGYPGYQSKHYACIRQKGGYCSWYRGWAPPDKSIINATDP |
| 13 | TIMP-4 (natural protein, human, UniProt Q99727 30-224, looked up, recombinant human TIMP-4 (R&D Systems); No catalogue number or tags are stated; source: bought: R&D Systems (recombinant human)) CSCAPAHPQQHICHSALVIRAKISSEKVVPASADPADTEKMLRYEIKQIKMFKGFEKVKDVQYIYTPFDSSLCGVKLEANSQKQYLLTGQVLSDGKVFIHLCNYIEPWEDLSLVQRESLNHHYHLNCGCQITTCYTVPCTISAPNECLWTDWLLERKLYGYQAQHYVCMKHVDGTCSWYRGHLPLRKEFVDIVQP |
